Test results taken from patent US20260108618A1 (published 2026).

What was measured:
Conjugate 45b [1] = molecular target: T1, Conjugate 45b (human, UniProt P0DOX5 203-448 = IgG part); assay: ELISA: conjugate coated on the plate, His-tagged receptor titrated, anti-His HRP detection
Conjugate 45b [2] = molecular target: T1, Conjugate 45b; assay: ELISA

B1: rat FcγR3A/CD16a (receptor)
chain: GLQKAVVNLDPEWVRVLEEDCVILRCQGTFSPEDNSTKWFHNKSLISHQDANYVIQSARVKDSGMYRCQTAFSALSDPVQLDVHADWLLLQTTKRLFQEGDPIRLRCHSWRNTPVFKVTYLQNGKGKKYFHRNSELSISKATHADSGSYFCRGIIGRNNISSASLQISIGDPTSPSSFLPWHQ
- binding result (Conjugate 45b [1]): binds

B2: human Fcγ RIIb (receptor)
chain: APPKAVLKLEPQWINVLQEDSVTLTCRGTHSPESDSIQWFHNGNLIPTHTQPSYRFKANNNDSGEYTCQTGQTSLSDPVHLTVLSEWLVLQTPHLEFQEGETIVLRCHSWKDKPLVKVTFFQNGKSKKFSRSDPNFSIPQANHSHSGDYHCTGNIGYTLYSSKPVTITVQAP
- binding result (Conjugate 45b [2]): binds

B3: mouse FcγR2B/CD32b (receptor)
chain: THDLPKAVVKLEPPWIQVLKEDTVTLTCEGTHNPGNSSTQWFHNGRSIRSQVQASYTFKATVNDSGEYRCQMEQTRLSDPVDLGVISDWLLLQTPQLVFLEGETITLRCHSWRNKLLNRISFFHNEKSVRYHHYSSNFSIPKANHSHSGDYYCKGSLGRTLHQSKPVTITVQGPKSSR
notes: also called murine Fcγ RIIb
- binding result (Conjugate 45b [2]): binds
